For one substance, % of recovery results are on record in publication PMC2645002.

The test concerns the target miniCD4 CD4M48, biotinylated at Lys11. Briefly: pull-down.

The substance “HIV-1 envelope glycoprotein gp120SF162 (monomer) (natural protein)” gave a % of recovery of 55.8%.
